Measured values published in US7838294B2, “Inhibitors of the JNK signal transduction pathway and methods of use” (University of Massachusetts, priority 1997, dated 2010).

Assays:
JNK1 [1] = target: T1, JNK1 (Homo sapiens, UniProt P45983); experiment: Co-immunoprecipitation of JIP-1 with JNK1 in transfected COS-1 cells; assay type: binding
T1 construct: expressed in transfected cells
Experimental: To test whether JIP-1 and JNK interact in vivo, co-immunoprecipitation analysis was performed. COS-1 cells were mock-transfected or transfected with JIP-1 and JNK1 expression vectors. Constructs expressing epitope (HA) tagged JNK1 have been described previously. Dérijard et al., supra; Sluss et al., supra; Gupta et al., supra. Mammalian JIP-1 expression vectors were constructed by subcloning the JIP-1 cDNA into the XbaI and HindIII sites of pCMV5 and the HindIII and EcoRI sites of pcDNA3 (Invitrogen Inc.). DNA encoding the Flag epitope, -Asp-Tyr-Lys-Asp-Asp-Asp-Asp-Lys- (SEQ ID NO:14) (Immunex Corp.), was inserted into JIP-1 cDNA between the DNA encoding the first two codons of JIP-1 using insertional overlapping polymerase chain reaction (PCR). Ho et al., Gene, 77:51 (1989). Bacterial JIP-1 expression vectors were constructed by subcloning PCR fragments of the JIP-1 cDNA into the EcoRI and XbaI sites of pGEX-3× (Pharmacia LKB Biotechnology Inc.). GST fusion proteins were purified by affinity chromatography on GSH-agarose as described previously. Smith et al., Gene, 67:31 (1988). […]
For the co-immunoprecipitation experiments, transfected or mock-transfected cells were irradiated with or without UV-C (40 J/m^2) and incubated for one hour. […] Immune complexes were detected with a second antibody coupled to horseradish peroxidase and enhanced chemiluminescence (Amersham International PLC).

JNK1 [2] = target: T1, JNK1; experiment: GST-fusion pull-down from cell lysates, Flag immunoblot: JNK1; assay type: binding; conditions: GST pull-down, Flag immunoblot
Experimental: To test whether JIP-1 binding to JNK is also isoform-dependent, a binding assay was utilized. Cell lysates (1 ml in TLB) containing JNK1, JNK2, or p38 MAP kinase, each tagged with the Flag epitope, were incubated with 5 μg GST-fusion proteins pre-bound to 10 μl glutathione-Sepharose. The GST fusion proteins used contain residues 127-202 (SEQ ID NO:15), 203-281 (SEQ ID NO:16), 164-240 (SEQ ID NO:17), or 127-281 (SEQ ID NO:4) of JIP-1. The GST-ATF2 fusion protein contains residues 1-109 of ATF2, and the GST-Jun fusion protein contains residues 1-79 of c-Jun. After incubation for one hour at 4° C. and three washes with TLB, bound proteins were detected by protein immunoblot analysis with the M2 monoclonal antibody, which is specific for the Flag epitope. Dérijard, et al., supra; Sluss et al., supra; Gupta et al., supra. […] This finding is consistent with the results of previous studies. In contrast, when GST-JIP-1 fusion proteins containing residues 127-202 or 127-281 of JIP-1 were tested in the assay, these proteins bound both JNK1 and JNK2.
The GST-JIP-1 fusion proteins containing various portions of the JIP-1 gene were used to define regions of JIP-1 that are required for JNK interaction. A GST-JIP-1 fusion protein containing residues 127-281 of JIP-1 bound both JNK1 and JNK2.
To more precisely define the JIP-1 sequence required for JNK binding activity, additional […] fusion proteins were constructed. These fusion proteins contained residues 135-202 (SEQ ID NO:18), 144-202 (SEQ ID NO:19), 154-202 (SEQ ID NO:20), 164-202 (SEQ ID NO:21), 127-143 (SEQ ID NO:22), 127-153 (SEQ ID NO:23), or 127-163 (SEQ ID NO:24) of JIP-1. Proteins containing residues 127-202, 135-202, 144-202, […], and 127-163 all bound both JNK1 and JNK2. Thus, JIP-1 residues 144-163 are important for the interaction of JIP-1 with JNK.

T1 sequence (P45983 1-384 isoform P45983-2): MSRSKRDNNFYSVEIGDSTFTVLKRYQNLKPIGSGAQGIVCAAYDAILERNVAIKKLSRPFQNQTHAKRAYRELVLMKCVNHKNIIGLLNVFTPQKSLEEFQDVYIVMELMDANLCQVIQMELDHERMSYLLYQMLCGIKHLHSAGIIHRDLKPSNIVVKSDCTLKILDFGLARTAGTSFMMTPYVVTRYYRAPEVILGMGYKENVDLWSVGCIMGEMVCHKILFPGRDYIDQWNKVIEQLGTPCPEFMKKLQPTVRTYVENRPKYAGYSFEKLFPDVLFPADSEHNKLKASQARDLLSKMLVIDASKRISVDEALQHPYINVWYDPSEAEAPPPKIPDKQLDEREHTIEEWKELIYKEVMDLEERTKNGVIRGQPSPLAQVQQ

B1: JIP-1: 660 amino acid murine cytoplasmic protein that specifically binds JNK (protein)
chain: MAERESGLGGGAASPPAASPFLGLHIASPPNFRLTHDISLEEFEDEDLSEITDECGISLQCKDTLSLRPPRAGLLSAGSSGSAGSRLQAEMLQMDLIDAAGDTPGAEDDEEEEDDELAAQRPGVGPPKAESNQDPAPRSQGQGPGTGSGDTYRPKRPTTLNLFPQVPRSQDTLNNNSLGKKHSWQDRVSRSSSPLKTGEQTPPHEHICLSDELPPQGSPVPTQDRGTSTDSPCRRSAATQMAPPSGPPATAPGGRGHSHRDRIHYQADVRLEATEEIYLTPVQRPPDPAEPTSTFMPPTESRMSVSSDPDPAAYSVTAGRPHPSISEEDEGFDCLSSPERAEPPGGGWRGSLGEPPPPPRASLSSDTSALSYDSVKYTLVVDEHAQLELVSLRPCFGDYSDESDSATVYDNCASASSPYESAIGEEYEEAPQPRPPTCLSEDSTPDEPDVHFSKKFLNVFMSGRSRSSSAESFGLFSCVINGEEHEQTHRAIFRFVPRHEDELELEVDDPLLVELQAEDYWYEAYNMRTGARGVFPAYYAIEVTKEPEHMAALAKNSCVLEISVRGVKIGVKADDALEAKGNKCSHFFQLKNISFCGYHPKNNKYFGFITKHPADHRFACHVFVSEDSTKALAESVGRAFQQFYKQFVEYTCPTEDIYLE
co-immunoprecipitation of JIP-1 with JNK1 (JNK1 [1]; COS-1 cells transfected with Flag-JIP-1 and HA-JNK1, protein immunoblot): detected in JNK1 immunoprecipitates
change in amount of JNK/JIP-1 complex on exposure to UV radiation (JNK1 [1]; UV-C 40 J/m2, one hour, co-immunoprecipitation): no significant change
binding of JNK compared with binding of JNK to ATF2 or c-Jun (JNK1 [2]): significantly greater
